Measurements from patent US20120121579A1, “TREATMENT OF ONCOSTATIN M RECEPTOR BETA MEDIATED HEART FAILURE” (MAX-PLANCK-GESELLSCHAFT ZUR FORDERUNG DER WISSENSCHAFTEN …, priority 2009, published 2012).
“Also recorded” adds a separate entry of the source.

What was measured:
[1] = system: cardiomyocytes; assay: Cytokine-induced FGP / dedifferentiation markers in cultured adult cardiomyocytes (Western blot); type: cell-based, rat; details: 20 ng/ml of cytokines, 10d of serum-free culture
Method: (§1) MCP-1 transgenic animals, intraperitoneally injection of oncostatin M and culture of adult cardiomyocytes. The generation of transgenic mice (from FVB/N mice) with cardiac restricted overexpression of monocyte chemotactic protein-1 has been previously described (Kolattukudy et al. 1998). 6 months old FVB mice were injected intraperitoneally twice daily with a volume of 0.2 ml of phosphate buffered saline containing 5% fetal calf serum without (CON) or with 60 ng oncostatin M (OSM) per gram of animal for fourteen days. Ventricular cardiac myocytes of 6-mo-old rats were isolated as previously described (Kubin et al. 1999). Myocytes were plated at a density of 1.5×10^4 cells/cm^2 on laminin-coated (10 μg/ml; Sigma) chamber slides or 6 well dishes (Nunc) in basic medium. Myocytes were allowed to recover for 2 days in 2% fetal calf serum (FCS). Thereafter, basic medium, FCS, 50 ng/ml insulin-like growth factor-1 or 20 ng/ml of cytokines were added as indicated. Media were replaced every other day. UO126 (Cell Signaling Technology) was added 1 h prior to stimulation. All experiments were performed in duplicate and constantly treated with 10 μM 1-(β-D-arabinofuranosyl)cytosine to prevent nonmyocyte growth. Determination of secreted ANP by Western Blot was performed after ultrafiltration (Millipore).
(§2) Preparation of Protein Extracts and Western Blot Analysis. Tissue Samples were Sonicated in Lysis buffer (0.1M Tris-HCl, 10% sodium dodecylsulfate (SDS), 10 mM ethylenediamine tetraacetic acid, 40 mM dithiothreitol (DTT); pH 8.0) containing inhibitors as previously described (Vogel et al. 2006). Cultures were washed twice with PBS and harvested by scraping in lysis buffer. After heating for 1 minute at 99° C. debris was removed by centrifugation for 2 min at 14000 g. Twenty micrograms of protein extracts were separated on 4%-12% SDS-PAGE gradient gels and processed as previously described (Vogel et al. 2006). Immunoreactive proteins were visualized on the VersaDoc (BioRad) and analyzed using the QuantityOne software (BioRad).

[2] = system: cardiomyocytes; assay: Morphology of cultured adult cardiomyocytes: lengthening, sarcomeres, α-SM actin, cell growth (phase contrast, immunostaining); type: cell-based, rat; details: for inhibition of OSM-induced cell lengthening: OSM-stimulated cardiomyocytes, serum-free
Method: as §1
(§3) Phase-contrast micrographs, immunocytochemistry and fluorescence microscopy. Phase-contrast micrographs were taken with a 20× lens. For immunocytochemistry and fluorescence microscopy samples were processed as previously described (Kubin et al. 1999).

[3] = system: OSM treated cardiomyocytes; assay: Inhibition of OSM-induced FGP in cultured cardiomyocytes (Western blot of 95 kDa B-Raf, α-SM actin, destrin, secreted ANP); type: cell-based, rat; details: after 10 days of OSM
Method: as §1, with “Determination of secreted ANP by Western Blot was performed after ultrafiltration (Millipore).” left out
(§4) Preparation of Protein Extracts and Western Blot Analysis. […] Immunoreactive proteins were visualized on the VersaDoc (BioRad) and analyzed using the QuantityOne software (BioRad).

[4] = system: Erk1/2; assay: OSM-induced Erk1/2 activation in cultured cardiomyocytes (Western blot); type: cell-based, rat; details: after 10 minutes of OSM
Method: as §1, with “Determination of secreted ANP by Western Blot was performed after ultrafiltration (Millipore).” left out
as §4

[5] = system: gp130/Raf/Erk axis; assay: Intraperitoneal oncostatin M treatment of mice, Western blot and immunostaining of cardiac tissue; type: in vivo, mouse
Method: as §1, §2, §3

[6] = 60 ng OSM per gram i.p. twice daily for fourteen days

## TNF-α
[1]
  induction of FGP / dedifferentiation (re-expression of the 95 kDa B-Raf, α-SM actin and destrin): neither TNF-α nor MCP-1 induced FGP

## MCP-1: monocyte chemotactic protein-1, recombinant mouse protein
[1]
  induction of FGP / dedifferentiation (re-expression of the 95 kDa B-Raf, α-SM actin and destrin): neither TNF-α nor MCP-1 induced FGP

## N#CC(=C(/N)Sc1ccccc1N)/C(C#N)=C(/N)Sc1ccccc1N [UO126]
[2]; 8 days
  inhibition of OSM-induced cell lengthening: completely abolished OSM-induced lengthening; also recorded: abolishment of cell lengthening
[2]; 8 days, listed as UO
  inhibition of OSM-induced cell lengthening: abolishes this effect
[3]
  inhibition of OSM-induced re-expression of α-SM actin, the 95 kDa B-Raf and destrin (FGP): complete inhibition of the reexpression; also recorded: loss of re-expression of α-SM actin, the 95 kDa B-Raf and destrin; also recorded: abolishment of cell lengthening, the reexpression of ANP, α-SM actin and the 95 kDa B-Raf isoform
  secretion of ANP by OSM-treated cardiomyocytes: loss of secreted atrial natriuretic peptide; also recorded: reduced secretion of ANP
[4]
  inhibition of OSM-induced Erk1/2 activation (phosphorylation): abolished the activation of Erk1/2; also recorded: inhibition of Erk1/2 activation

B1: cardiotrophin: recombinant mouse cytokine of the interleukin-6 class (protein, UniProt Q60753 1-203, looked up)
Cardiotrophin-1: MSQREGSLEDHQTDSSISFLPHLEAKIRQTHNLARLLTKYAEQLLEEYVQQQGEPFGLPGFSPPRLPLAGLSGPAPSHAGLPVSERLRQDAAALSVLPALLDAVRRRQAELNPRAPRLLRSLEDAARQVRALGAAVETVLAALGAAARGPGPEPVTVATLFTANSTAGIFSAKVLGFHVCGLYGEWVSRTEGDLGQLVPGGVA
[1]
  induction of FGP / dedifferentiation (re-expression of the 95 kDa B-Raf, α-SM actin and destrin): only a limited capacity to induce dedifferentiation

B2: 11-6: interleukin-6, recombinant mouse cytokine (protein, UniProt P08505 25-211, looked up)
Interleukin-6: FPTSQVRRGDFTEDTTPNRPVYTTSQVGGLITHVLWEIVEMRKELCNGNSDCMNNDDALAENNLKLPEIQRNDGCYQTGYNQEICLLKISSGLLEYHSYLEYMKNNLKDNKKDKARVLQRDTETLIHIFNQEVKDLHKIVLPTPISNALLTDKLESQKEWLRTKTIQFILKSLEEFLKVTLRSTRQT
[1]
  induction of FGP / dedifferentiation (re-expression of the 95 kDa B-Raf, α-SM actin and destrin): only a limited capacity to induce dedifferentiation

B3: OSM: mouse oncostatin M, recombinant cytokine obtained from Sigma (protein)
chain: ANRGCSNSSSQLLSQLQNQANLTGNTESLLEPYIRLQNLNTPDLRAACTQHSVAFPSEDTLRQLSKPHFLSTVYTTLDRVLYQLDALRQKFLKTPAFPKLDSARHNILGIRNNVFCMARLLNHSLEIPEPTQTDSGASRSTTTPDVFNTKIGSCGFLWGYHRFMGSVGRVFREWDDGSTRSRR
[1]
  induction of FGP / dedifferentiation (re-expression of the 95 kDa B-Raf, α-SM actin and destrin): induces more potently FGP than LIF
[2]; 2% serum, 12 days
  re-expression of α-SM actin (immunostaining): massive re-expression of α-SM actin throughout the myocyte
[2]; 2% serum, 12 days, versus 2% serum treated controls
  loss of sarcomeres: massive loss of sarcomeres
[2]; absence of serum, 8 days
  remodelling of cardiomyocytes (cell lengthening): remodelling of cardiomyocytes primarily visible in cell lengthening
[5]; [6]
  P-Erk1/2 in cardiac tissue: Moderate increases
  amounts of B-Raf isoforms in cardiac tissue: increased amounts of all B-Raf isoforms
  level of LIF in cardiac tissue: did not change; also recorded: No changes
  level of α-SM actin, destrin and ANP in myocardial tissue: increased level
  phosphorylation level of the serine residue 782 of gp130: significant increases
[5]; 60 ng OSM per gram i.p. twice daily for fourteen days, 6 months old mice
  amount of OSMRβ in cardiac tissue: significant increases
[5]; injection of OSM into mice
  heart failure phenotype after injection into mice: resulted into the heart failure phenotype of DCM
